Data reported in paper doi:10.1101/2020.05.19.103432.

What was measured:
[1] = target: GltPh K55C/C321A/A364C mutant, cross-linked with HgCl2 (GltPh^IFS) (UniProt O59010); test: cryo-EM structure
[2] = target: GltPh, fully functional seven-histidine mutant, referred to as wildtype (WT) (UniProt O59010); test: cryo-EM structure

| stoichiometry N [1] | stoichiometry N [2] | Substance |
| --- | --- | --- |
| 3 | – | GltPh K55C/C321A/A364C mutant, cross-linked with HgCl2 (GltPh^IFS) (from UniProt O59010 1-425) (natural protein) |
| – | 3 | GltPh, fully functional seven-histidine mutant, referred to as wildtype (WT) (from UniProt O59010 1-417) (natural protein) |
